Laboratory results: publication PMC6176016

Assays:
Test in all cases: FRET by FACS (LSRII)
WT TACI-YFP = conditions: HEK-293T cells, double positive YFP and mCherry gate, 6 independent experiments, read off a plot
[1] = molecular target: CD40-eYFP (pReceiver-huCD40-eYFP) (UniProt P25942); conditions: co-transfected HEK-293T cells; percent of live cells in the gate, averaged for 6 experiments
[2] = molecular target: TACI-L (long TACI isoform) labeled with mCherry or YFP (UniProt O14836); conditions: co-transfected HEK-293T cells; percent of live cells in the gate, averaged for 6 experiments
Sequence of TACI-L (long TACI isoform) labeled with mCherry or YFP (O14836 whole entry, canonical isoform): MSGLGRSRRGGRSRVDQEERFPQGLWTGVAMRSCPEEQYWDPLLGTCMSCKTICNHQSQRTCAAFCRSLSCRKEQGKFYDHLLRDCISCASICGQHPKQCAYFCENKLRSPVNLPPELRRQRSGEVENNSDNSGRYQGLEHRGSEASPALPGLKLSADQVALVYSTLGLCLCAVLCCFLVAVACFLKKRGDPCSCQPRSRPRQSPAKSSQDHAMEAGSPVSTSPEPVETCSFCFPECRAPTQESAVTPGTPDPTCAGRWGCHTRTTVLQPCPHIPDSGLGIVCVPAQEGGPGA

[3] = molecular target: TACI-S (short TACI isoform) labeled with mCherry or YFP, O14836-2; conditions: co-transfected HEK-293T cells; percent of live cells in the gate, averaged for 6 experiments
Sequence of TACI-S (short TACI isoform) labeled with mCherry or YFP, O14836-2 (O14836 other isoform, or with tags, fused parts or gaps): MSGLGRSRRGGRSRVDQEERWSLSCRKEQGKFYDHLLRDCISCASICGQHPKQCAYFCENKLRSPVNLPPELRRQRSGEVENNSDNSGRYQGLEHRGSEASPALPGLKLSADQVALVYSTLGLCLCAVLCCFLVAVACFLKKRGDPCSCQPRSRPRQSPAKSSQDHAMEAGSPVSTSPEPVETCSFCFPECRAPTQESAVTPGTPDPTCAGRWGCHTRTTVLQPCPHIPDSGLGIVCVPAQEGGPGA

Sequence of CD40-eYFP (pReceiver-huCD40-eYFP) (P25942 21-277): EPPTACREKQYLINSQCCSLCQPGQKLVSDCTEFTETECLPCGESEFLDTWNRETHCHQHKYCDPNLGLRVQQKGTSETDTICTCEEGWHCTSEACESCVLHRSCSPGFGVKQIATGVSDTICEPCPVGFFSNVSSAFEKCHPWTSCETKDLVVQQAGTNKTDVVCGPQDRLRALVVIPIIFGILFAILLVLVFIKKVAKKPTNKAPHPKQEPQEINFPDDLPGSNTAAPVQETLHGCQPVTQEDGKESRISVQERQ

Substance: TACI-L A181E
- response (% FRET positive cells) (WT TACI-YFP; parent: est. 90): 72

Substance: TACI-L C104R
- response (% FRET positive cells) (WT TACI-YFP; parent: est. 90): 81

Substance: TACI-S A181E
- response (% FRET positive cells) (WT TACI-YFP; parent: est. 72): 88

Substance: TACI-S C104R
- response (% FRET positive cells) (WT TACI-YFP; parent: est. 72): 74

Substance: WT TACI (isoform of the mutant not stated in the panel) A181E
- response (% FRET positive cells) [1]: 0.38
- response (% FRET positive cells) [2]: 16.8
- response (% FRET positive cells) [3]: 19.6

Substance: WT TACI (isoform of the mutant not stated in the panel) C104R
- response (% FRET positive cells) [1]: 0.02
- response (% FRET positive cells) [2]: 14.8
- response (% FRET positive cells) [3]: 18.7
